Results from patent publication US20150218243A1 (SAMSUNG ELECTRONICS, published 2015).

Biological target: T1, recombinant full length Human Cdk6 (amino acids 1-326) with N-terminal His tag (Abcam ab84717) (human, UniProt Q00534 1-326)
T1 construct: range 1-326; Bought protein, coated on the ELISA plate at 1 ug/ml; also called Cdk6 protein; not shown: N-terminal His tag of the bought protein
Experiment: ELISA, Cdk6 coated on plate, p15 variant at 0-10 uM, anti-GST primary and HRP secondary antibody, absorbance 450 nm

T1 sequence (Q00534 whole entry, the tested form may be a part): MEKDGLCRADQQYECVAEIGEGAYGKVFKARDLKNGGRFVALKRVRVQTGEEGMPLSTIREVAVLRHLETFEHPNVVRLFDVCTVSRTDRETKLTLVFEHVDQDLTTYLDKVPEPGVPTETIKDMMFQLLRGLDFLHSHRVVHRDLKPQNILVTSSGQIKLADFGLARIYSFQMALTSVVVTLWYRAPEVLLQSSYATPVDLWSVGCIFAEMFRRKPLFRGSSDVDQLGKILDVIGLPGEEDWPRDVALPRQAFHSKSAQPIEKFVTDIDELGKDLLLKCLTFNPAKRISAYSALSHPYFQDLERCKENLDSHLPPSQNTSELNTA

B1: human p15 protein variant (SEQ ID NO: 2) (other)
chain: MREENKGMPSGGGSDEGLASAAARGLVEKVRQLLEAGADPNGVNRFGRRAIQVMMMGSARVAELLLKHGAEPNSADPATSTRPVHDAAREGFLDTLVVLHRAGARLDARDAWGRTPVDLAEERGHRDVAGYLRTATGD
notes: Expressed in E. coli from pET21b (NdeI/XhoI) and purified on a HisTrap column and by SEC; also called mt p15; p15INK4b variant
  binding result: binds
